Tested on: engineered chimeric receptor SEQ ID NO: 33 and its mutants (human α7-nAChR ligand binding domain / human GlyRα1 ion pore domain) in Lenti-X 293T cells
Test: YFP fluorescence quenching anion reporter plate reader assay (percent quench, EC50)
Assay type: cell-based
Conditions: for YFP fluorescence quenching using CNL001 (percent quench): receptor named in row; for YFP fluorescence quenching using Varenicline, 3 nM var: ligand Varenicline 3 nM; for YFP fluorescence quenching using Varenicline, 30 nM var: ligand Varenicline 30 nM; for YFP fluorescence quenching using Varenicline, 300 nM var: ligand Varenicline 300 nM; for YFP fluorescence quenching using Varenicline, 500 nM var: ligand Varenicline 500 nM; for YFP fluorescence quenching using Varenicline, 1 uM var: ligand Varenicline 1 uM
Summary of the method: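 Percent quench compares mean YFP signal over the final 10 s with the 15 s baseline before ligand, added in iodide-containing extracellular solution (pH 7.2). Cells were LX293T carrying a YFP anion reporter, transiently transfected with the channel construct; plates were preincubated 30 min at 37 °C.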

B1: CODA326: engineered receptor: L131A in SEQ ID NO: 33 (protein)
chain: MRCSPGGVWLALAASLLHVSLQGEFQRKLYKELVKNYNPLERPVANDSQPLTVYFSLSLLQIMDVDEKNQVLTTNIWLQMSWTDHYLQWNVSEYPGVKTVRFPDGQIWKPDILLYNSADERFDATFHTNVAVNSSGHCQYLPPGIFKSSCPMDLKNFPMDVQTCKLKFGSWSYGGWSLDLQMQEADISGYIPNGEWDLVGIPGKRSERFYECCKEPYPDVTFTVTMRRRMGYYLIQMYIPSLLIVILSWISFWINMDAAPARVGLGITTVLTMTTQSSGSRASLPKVSYVKAIDIWMAVCLLFVFSALLEYAAVNFVSRQHKELLRFRRKRRHHKSPMLNLFQEDEAGEGRFNFSAYGMGPACLQAKDGISVKGANNSNTTNPPPAPSKSPEEMRKLFIQRAKKIDKISRIGFPMAFLIFNMFYWIIYKIVRREDVHNQ
modifications: synthetic sequence of chimeric LGIC
YFP fluorescence quenching using CNL001 (percent quench) (1 nM CNL001, first column so headed): 76.424% | YFP fluorescence quenching using CNL001 (percent quench) (1 nM CNL001, second column so headed): 80.567% | YFP fluorescence quenching using TC-5619/Bradanicline (percent quench) (3 nM brd (TC-5619/Bradanicline)): 72.24% | YFP fluorescence quenching using CNL001 (percent quench) (10 nM CNL001, first column so headed): 80.284% | YFP fluorescence quenching using CNL001 (percent quench) (10 nM CNL001, second column so headed): 81.232% | YFP fluorescence quenching using TC-6683 (percent quench) (30 nM TC-6683): −16.28% | YFP fluorescence quenching using TC-5619/Bradanicline (percent quench) (30 nM brd (TC-5619/Bradanicline)): 77.4% | YFP fluorescence quenching using CNL001 (percent quench) (50 nM CNL001, first column so headed): 81.575% | YFP fluorescence quenching using CNL001 (percent quench) (50 nM CNL001, second column so headed): 82.544% | YFP fluorescence quenching using ABT-126 (percent quench) (50 nM abt (ABT-126)): −21.91% | YFP fluorescence quenching using CNL001 (percent quench) (100 nM CNL001, first column so headed): 81% | YFP fluorescence quenching using CNL001 (percent quench) (100 nM CNL001, second column so headed): 81.718% | YFP fluorescence quenching (percent quench) (100 nM CNL002): 27.88% | YFP fluorescence quenching using ABT-126 (percent quench) (100 nM abt (ABT-126)): −0.5% | YFP fluorescence quenching using AZD-0328 (percent quench) (100 nM azd0328): 80.39% | YFP fluorescence quenching using TC-6683 (percent quench) (300 nM TC-6683): −11.73% | YFP fluorescence quenching using ABT-126 (percent quench) (300 nM abt (ABT-126)): 34.86% | YFP fluorescence quenching using AZD-0328 (percent quench) (300 nM azd0328): 82.07% | YFP fluorescence quenching using TC-5619/Bradanicline (percent quench) (300 nM brd (TC-5619/Bradanicline)): 78.02% | YFP fluorescence quenching using CNL001 (percent quench) (1 uM CNL001, first column so headed): 82.334% | YFP fluorescence quenching using CNL001 (percent quench) (1 uM CNL001, second column so headed): 81.539% | YFP fluorescence quenching (percent quench) (1 uM CNL002): 73.79% | YFP fluorescence quenching using ABT-126 (percent quench) (1 uM abt (ABT-126)): 56.66% | YFP fluorescence quenching using TC-6683 (percent quench) (3 uM TC-6683): −2.38% | YFP fluorescence quenching (percent quench) (10 uM ach (acetylcholine)): 7.43% | YFP fluorescence quenching (percent quench) (30 uM CNL002): 75.89% | YFP fluorescence quenching using TC-6683 (percent quench) (30 uM TC-6683): −9.77% | YFP fluorescence quenching using AZD-0328 (percent quench) (30 uM azd0328): 82.23% | YFP fluorescence quenching using TC-6683 (percent quench) (100 uM TC-6683): 0.97% | YFP fluorescence quenching (percent quench) (100 uM ach (acetylcholine)): 73.57% | YFP fluorescence quenching (percent quench) (1 mM ach (acetylcholine)): 71.8% | YFP fluorescence quenching (percent quench) (3 mM ach (acetylcholine)): 74.49% | YFP fluorescence quenching using Facinicline, 30 nM fac (ligand Facinicline 30 nM): 69.94 | YFP fluorescence quenching using Facinicline, 300 nM fac (ligand Facinicline 300 nM): 80.07 | YFP fluorescence quenching using Facinicline, 30 uM fac (ligand Facinicline 30 uM): 78.32 | YFP fluorescence quenching using TC-6987, 1 uM tc6987 (ligand TC-6987 1 uM): 73.37 | YFP fluorescence quenching using TC-6987, 10 uM tc6987 (ligand TC-6987 10 uM): 78.18 | YFP fluorescence quenching using TC-6987, 500 uM tc6987 (ligand TC-6987 500 uM): 75.42 | YFP fluorescence quenching using Varenicline, 3 nM var (first column): −5.939 | YFP fluorescence quenching using Varenicline, 3 nM var (second column): −2.294 | YFP fluorescence quenching using Varenicline, 30 nM var (first column): 68.663 | YFP fluorescence quenching using Varenicline, 30 nM var (second column): 70.718 | YFP fluorescence quenching using Varenicline, 300 nM var (first column): 79.88 | YFP fluorescence quenching using Varenicline, 300 nM var (second column): 79.742 | YFP fluorescence quenching using Varenicline, 500 nM var (first column): 79.311 | YFP fluorescence quenching using Varenicline, 500 nM var (second column): 80.029 | YFP fluorescence quenching using Varenicline, 1 uM var (first column): 80.952 | YFP fluorescence quenching using Varenicline, 1 uM var (second column): 79.329

Source: patent US20250152742A1, “COMPOSITIONS AND METHODS FOR NEUROLOGICAL DISEASES” (Trames Bio, Inc., priority 2022, published 2025)
